According to publication PMC9352551, “Energetic determinants of animal cell polarity regulator Par-3 interaction with the Par complex” (The Journal of Biological Chemistry, 2022):

Experiments:
Details in all cases: both partners purified
MBP-Par-3 PDZ1-APM = biological target: T1, MBP-Par-3 PDZ1-APM (Drosophila, UniProt O96782 309-987); experiment: pull-down; GST-aPKC PBM on glutathione resin with Par-3 PDZ1-APM and the Par complex as soluble proteins; room temperature, 30 to 60 min; 10 mM Hepes pH 7.5, 100 mM NaCl, 1 mM DTT, 200 μM ATP, 5 mM MgCl2, 0.1% Tween-20; Coomassie gel
T1 construct: Par-3 (Bazooka), Drosophila, residues 309-987 (PDZ1 to the aPKC phosphorylation motif); From pMAL; construct as in PMID 32084408; not shown: MBP, N-terminal, kept; His tag, C-terminal, kept
T1 sequence (looked up): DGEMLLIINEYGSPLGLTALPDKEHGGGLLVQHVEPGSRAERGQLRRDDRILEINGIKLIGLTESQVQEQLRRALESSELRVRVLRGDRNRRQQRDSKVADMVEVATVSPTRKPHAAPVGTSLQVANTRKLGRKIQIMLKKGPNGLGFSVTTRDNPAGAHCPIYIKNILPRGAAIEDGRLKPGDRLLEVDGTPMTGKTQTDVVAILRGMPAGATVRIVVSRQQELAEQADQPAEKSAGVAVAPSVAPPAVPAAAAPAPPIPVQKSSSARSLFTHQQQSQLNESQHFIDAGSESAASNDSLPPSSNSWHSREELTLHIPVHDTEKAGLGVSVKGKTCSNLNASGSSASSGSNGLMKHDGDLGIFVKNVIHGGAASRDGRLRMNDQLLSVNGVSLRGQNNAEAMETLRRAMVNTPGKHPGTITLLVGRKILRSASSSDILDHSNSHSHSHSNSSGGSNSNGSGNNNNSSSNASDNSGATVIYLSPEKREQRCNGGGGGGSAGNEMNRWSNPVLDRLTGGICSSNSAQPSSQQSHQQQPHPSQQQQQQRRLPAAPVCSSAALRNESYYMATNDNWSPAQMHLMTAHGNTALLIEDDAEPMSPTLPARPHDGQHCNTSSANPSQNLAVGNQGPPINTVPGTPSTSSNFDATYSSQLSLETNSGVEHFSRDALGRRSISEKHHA

[1] = biological target: T2, Par-3 PDZ3 (his-purified, soluble) (Drosophila, UniProt O96782 616-741); experiment: supernatant depletion assay; GST-fused protein on glutathione agarose resin (solid phase, 'ligand'); soluble protein ('receptor') left in the supernatant at equilibrium quantified on a Coomassie gel; 1 h at 20 °C; 10 mM Hepes pH 7.5, 100 mM NaCl, 1 mM DTT, 200 μM ATP, 5 mM MgCl2, 0.1% Tween-20; single-site equation; 'apparent' for Par-3 variants that could bind more than one Par complex; ATP replaced with ADP in one …
T2 construct: Par-3 (Bazooka), Drosophila, residues 616-741; From pET19; source: E. coli BL21 (DE3), his-purified
T2 sequence (looked up): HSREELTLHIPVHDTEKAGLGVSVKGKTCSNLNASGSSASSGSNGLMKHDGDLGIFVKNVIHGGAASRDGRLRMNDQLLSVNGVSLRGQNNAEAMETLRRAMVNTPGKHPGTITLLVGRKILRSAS

[2] = biological target: T3, Par-3 PDZ2 (his-purified, soluble) (Drosophila, UniProt O96782 444-533); experiment: as above
T3 construct: Par-3 (Bazooka), Drosophila, residues 444-533; From pET19; also called soluble PDZ2; source: E. coli BL21 (DE3), his-purified
T3 sequence (looked up): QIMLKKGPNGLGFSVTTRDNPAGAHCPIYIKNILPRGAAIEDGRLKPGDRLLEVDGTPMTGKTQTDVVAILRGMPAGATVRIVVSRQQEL

- binding result (MBP-Par-3 PDZ1-APM): binds
- binding result [1]: binds
- binding result [2]: binds
B1: GST-aPKC PBM (domain or fragment, Drosophila, UniProt A1Z9X0 583-606, looked up)
chain: NIDQSEFEGFEYVNPLLMSLEDCV
notes: From pGEX; construct as in PMID 32084408
